The target of assay [1] is LC3B WT (rat LC3B 1-120) (rat) (UniProt Q62625). As to the kind of experiment: ITC; peptide in the syringe (0.5 mM) titrated into 200 µl of the Atg8 homologue in the cell at a 10 times lower concentration; MicroCal iTC200, 25 °C, stirring at 1000 rpm; single-site binding model; N fixed to 1.0 when the fitting was not convergent due to weak interaction; errors are fitting errors. On the technique in general: Isothermal titration calorimetry measures the heat released or taken up as one component is titrated into another.

Assay [2] deals with GABARAP WT (human GABARAP 1-116) (human) (UniProt O95166). Described as above.
Chain of GABARAP WT (human GABARAP 1-116) (human) (O95166 1-116): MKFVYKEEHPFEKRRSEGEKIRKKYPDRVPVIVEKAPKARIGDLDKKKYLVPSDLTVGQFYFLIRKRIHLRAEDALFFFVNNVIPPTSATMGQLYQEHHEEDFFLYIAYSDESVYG
Assay [3] addresses Atg8 (1-116) K26P (S. cerevisiae) (UniProt P38182). As to the kind of experiment: ITC; MicroCal iTC200, 25 °C; peptide in the syringe (FAM134B, SEC62, RTN3 0.5 mM; Atg40^234–252 2.0 mM; Atg40^237–252 1.8 mM), Atg8-family protein in the cell at 10 times lower concentration (1.8 mM Atg8 for Atg40^237–252 D243A D247A); 20 mM HEPES pH 6.8, 150 mM NaCl; single-site model; errors are fitting errors.

In a further assay the target is LC3C WT (UniProt Q9BXW4). As to the kind of experiment: ITC; peptide in the syringe (0.5 mM) titrated into 200 µl of the Atg8 homologue in the cell at a 10 times lower concentration; MicroCal iTC200, 25 °C, stirring at 1000 rpm; single-site binding model; N fixed to 1.0 when the fitting was not convergent due to weak interaction; errors are fitting errors.
Chain of LC3C WT (Q9BXW4 1-126): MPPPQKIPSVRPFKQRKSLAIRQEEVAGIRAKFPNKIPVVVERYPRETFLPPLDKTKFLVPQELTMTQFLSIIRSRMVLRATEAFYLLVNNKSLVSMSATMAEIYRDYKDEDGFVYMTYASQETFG
The target of the next assay is LC3A WT (UniProt Q9H492). Described as above.
A further assay concerns the target GABARAPL2 WT (UniProt P60520). The description is as above.
A further assay has as its target GABARAPL1 WT (UniProt Q9H0R8). The assay is described as above.

Chain of GABARAPL2 WT (P60520 whole entry): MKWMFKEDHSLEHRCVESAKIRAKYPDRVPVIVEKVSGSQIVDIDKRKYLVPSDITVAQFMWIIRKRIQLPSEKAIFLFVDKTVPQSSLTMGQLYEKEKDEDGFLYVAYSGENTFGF
Chain of GABARAPL1 WT (Q9H0R8 whole entry): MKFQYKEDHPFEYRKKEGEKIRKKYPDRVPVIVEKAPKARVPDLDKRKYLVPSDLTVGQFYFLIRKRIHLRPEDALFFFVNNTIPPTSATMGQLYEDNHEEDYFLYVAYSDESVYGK
Chain of Atg8 (1-116) K26P (S. cerevisiae) (P38182 1-116 K26P): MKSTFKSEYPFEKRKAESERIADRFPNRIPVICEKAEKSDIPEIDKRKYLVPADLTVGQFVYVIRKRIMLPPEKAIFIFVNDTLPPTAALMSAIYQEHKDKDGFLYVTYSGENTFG

Take FAM134B444-470 E456A E462A peptide: in assay [1], the Kd (as a rule, the equilibrium constant for the complex coming apart) turned out to be 8200 nM and the stoichiometry N – broadly, a count of units in the complex or per binding partner – came to 1.28 site.
In assay [2], FAM134B444-470 L458A peptide yielded a Kd of 2060 nM and a stoichiometry N of 0.99 site.
The substance “Atg40^237–252 peptide (from UniProt Q99325 237-252)” returned a Kd in assay [3] of 570 nM.
On to FAM134B444-470 WT peptide, for which the Kd with LC3C WT was 1110 nM; in the assay with LC3A WT, 210 nM; with GABARAPL2 WT it was 300 nM; in assay [1] it was 620 nM; with GABARAPL1 WT, 120 nM. Besides, the stoichiometry N in the assay with LC3C WT was 0.74 site; in the assay with LC3A WT it was 0.7 site; in the assay with GABARAPL2 WT, 0.89 site; in assay [1], 1.08 site; with GABARAPL1 WT, 0.97 site.

Values taken from publication PMC7335187, “Super-assembly of ER-phagy receptor Atg40 induces local ER remodeling at contacts with forming autophagosomal membranes” (Nature Communications, 2020).
